Test results taken from article PMC6599887, “Exploration of the TRIM Fold of MuRF1 Using EPR Reveals a Canonical Antiparallel Structure and Extended COS-Box” (Journal of Molecular Biology, 2019).
Residue numbers refer to the chain shown, from its start. Names and notes keep the numbering of the source.

B1: MuRF1-HD R320C (cysteine-null background), MTSSL-labelled (domain or fragment, UniProt Q969Q1 155-328, looked up)
chain: EVAPLQSVFQGQKTELNNSISMLVAGNDRVQTIITQLEDSRRVTKENSHQVKEELSQKFDTLYAILDEKKSELLQRITQEQEKKLSFIEALIQQYQEQLDKSTKLVETAIQSLDEPGGATFLLTAKQLIKSIVEASKGSQLGKTEQGFENMDFFTLDLEHIADALCAIDFGTDE
modifications: MTSSL spin label (R1) on cysteine 320
notes: MuRF1 (TRIM63) helical domain, residues 155-328 of UniProtKB Q969Q1; also called R320R1; E320R1 (as printed once); not shown: His6, N-terminal, cleaved; SUMO, N-terminal, cleaved
B2: MuRF1-HD E243C (cysteine-null background), MTSSL-labelled (domain or fragment, UniProt Q969Q1 155-328, looked up)
chain: B1 chain with E89C, C166R
modifications: MTSSL spin label (R1) on cysteine 243
notes: MuRF1 (TRIM63) helical domain, residues 155-328 of UniProtKB Q969Q1; also called E243R1; not shown: His6, N-terminal, cleaved; SUMO, N-terminal, cleaved
B3: MuRF1-HD K297C (cysteine-null background), MTSSL-labelled (domain or fragment, UniProt Q969Q1 155-328, looked up)
chain: B1 chain with K143C, C166R
modifications: MTSSL spin label (R1) on cysteine 297
notes: MuRF1 (TRIM63) helical domain, residues 155-328 of UniProtKB Q969Q1; also called K297R1; not shown: His6, N-terminal, cleaved; SUMO, N-terminal, cleaved
B4: MuRF1-HD doubly labelled at E192R1 and R320R1 (cysteine-null background) (domain or fragment, UniProt Q969Q1 155-328, looked up)
chain: B1 chain with E38C
modifications: MTSSL spin label (R1) on cysteines 192 and 320
notes: MuRF1 (TRIM63) helical domain, residues 155-328 of UniProtKB Q969Q1; The double mutant is told only as labels placed at E192R1 and R320R1 simultaneously; the cysteine-null background follows from the methods; also called double-labeled sample; not shown: His6, N-terminal, cleaved; SUMO, N-terminal, cleaved
B5: MuRF1-HD E192C (cysteine-null background), MTSSL-labelled (domain or fragment, UniProt Q969Q1 155-328, looked up)
chain: B1 chain with E38C, C166R
modifications: MTSSL spin label (R1) on cysteine 192
notes: MuRF1 (TRIM63) helical domain, residues 155-328 of UniProtKB Q969Q1; also called E192R1; not shown: His6, N-terminal, cleaved; SUMO, N-terminal, cleaved
B6: MuRF1-HD E200C (cysteine-null background), MTSSL-labelled (domain or fragment, UniProt Q969Q1 155-328, looked up)
chain: B1 chain with E46C, C166R
modifications: MTSSL spin label (R1) on cysteine 200
notes: MuRF1 (TRIM63) helical domain, residues 155-328 of UniProtKB Q969Q1; also called E200R1; not shown: His6, N-terminal, cleaved; SUMO, N-terminal, cleaved
B7: MuRF1-HD K212C (cysteine-null background), MTSSL-labelled (domain or fragment, UniProt Q969Q1 155-328, looked up)
chain: B1 chain with K58C, C166R
modifications: MTSSL spin label (R1) on cysteine 212
notes: MuRF1 (TRIM63) helical domain, residues 155-328 of UniProtKB Q969Q1; also called K212R1; not shown: His6, N-terminal, cleaved; SUMO, N-terminal, cleaved
B8: MuRF1-HD E222C (cysteine-null background), MTSSL-labelled (domain or fragment, UniProt Q969Q1 155-328, looked up)
chain: B1 chain with E68C, C166R
modifications: MTSSL spin label (R1) on cysteine 222
notes: MuRF1 (TRIM63) helical domain, residues 155-328 of UniProtKB Q969Q1; also called E222R1; not shown: His6, N-terminal, cleaved; SUMO, N-terminal, cleaved
B9: MuRF1-HD R230C (cysteine-null background), MTSSL-labelled (domain or fragment, UniProt Q969Q1 155-328, looked up)
chain: B1 chain with R76C, C166R
modifications: MTSSL spin label (R1) on cysteine 230
notes: MuRF1 (TRIM63) helical domain, residues 155-328 of UniProtKB Q969Q1; also called R230R1; not shown: His6, N-terminal, cleaved; SUMO, N-terminal, cleaved
B10: MuRF1-HD E313C (cysteine-null background), MTSSL-labelled (domain or fragment, UniProt Q969Q1 155-328, looked up)
chain: B1 chain with E159C, C166R
modifications: MTSSL spin label (R1) on cysteine 313
notes: MuRF1 (TRIM63) helical domain, residues 155-328 of UniProtKB Q969Q1; also called E313R1; not shown: His6, N-terminal, cleaved; SUMO, N-terminal, cleaved
B11: MuRF1-HD F163C/L276C (in cysteine-null background) (domain or fragment, UniProt Q969Q1 155-328, looked up)
chain: B1 chain with F9C, L122C, C166R
modifications: disulfide bonds between the introduced cysteines after spontaneous oxidation
notes: MuRF1 (TRIM63) helical domain, residues 155-328 of UniProtKB Q969Q1; not shown: His6, N-terminal, cleaved; SUMO, N-terminal, cleaved
B12: MuRF1-HD V184C/L253C (in cysteine-null background) (domain or fragment, UniProt Q969Q1 155-328, looked up)
chain: B1 chain with V30C, L99C, C166R
modifications: disulfide bonds between the introduced cysteines after spontaneous oxidation
notes: as for B11
B13: MuRF1-HD S202C/Q235C (in cysteine-null background) (domain or fragment, UniProt Q969Q1 155-328, looked up)
chain: B1 chain with S48C, Q81C, C166R
modifications: disulfide bonds between the introduced cysteines after spontaneous oxidation
notes: as for B11

Molecular target: the molecule itself
Assay: PELDOR (pulsed EPR, DEER); MTSSL-labelled protein, 100 to 200 uM MuRF1 dimer, deuterated Hepes pH 8.0/NaCl buffer mixed 1:1 with D8-glycerol, flash frozen; Q-band, 50 K; distances between labels across the protomers of the dimer

Protein | binding result
B1 | binds
B2 | binds
B3 | binds
B4 | binds
B5 | binds
B6 | binds
B7 | binds
B8 | binds
B9 | binds
B10 | binds

Molecular target: the molecule itself
Assay: cross-linking; zero-length disulfide cross-linking by spontaneous oxidation: 20 uM protein reduced in 50 mM Tris-HCl pH 8.0, 100 mM NaCl, 20 mM beta-mercaptoethanol, dialysed overnight at 4 °C into the same buffer without reducing agent; non-reducing against reducing SDS-PAGE, Coomassie staining

Protein | stoichiometry N
B11 | 2
B12 | 2
B13 | 2
